Laboratory results taken from paper doi:10.1101/2023.11.01.565197 (bioRxiv, 2023).

Target: the molecule itself
Assay: cryo-EM structure

B1: rabbit Slo1 (KCNMA1) (natural protein)
chain: not shown
stoichiometry N: 4
